From publication PMC10560217, “Structural conservation of insulin/IGF signalling axis at the insulin receptors level in Drosophila and humans” (Nature Communications, 2023)

Target: the molecule itself
Experiment: cryo-EM structure; equal volumes of 10 uM dmIR-ECD and 50 uM DILP5 (five-molar hormone excess) in 50 mM Tris, 150 mM NaCl, pH 7.4; reconstruction at 4.0 A

B1: Drosophila insulin receptor ectodomain (dmIR-ECD) (domain or fragment, Drosophila melanogaster, UniProt P09208 264-1309, looked up)
chain: LPAHQQHLLHNDIADGLDKTALSVSGTQSRWTRSESNPTMRLSQNVKPCKSMDIRNMVSHFNQLENCTVIEGFLLIDLINDASPLNRSFPKLTEVTDYIIIYRVTGLHSLSKIFPNLSVIRGNKLFDGYALVVYSNFDLMDLGLHKLRSITRGGVRIEKNHKLCYDRTIDWLEILAENETQLVVLTENGKEKECRLSKCPGEIRIEEGHDTTAIEGELNASCQLHNNRRLCWNSKLCQTKCPEKCRNNCIDEHTCCSQDCLGGCVIDKNGNESCISCRNVSFNNICMDSCPKGYYQFDSRCVTANECITLTKFETNSVYSGIPYNGQCITHCPTGYQKSENKRMCEPCPGGKCDKECSSGLIDSLERAREFHGCTIITGTEPLTISIKRESGAHVMDELKYGLAAVHKIQSSLMVHLTYGLKSLKFFQSLTEISGDPPMDADKYALYVLDNRDLDELWGPNQTVFIRKGGVFFHFNPKLCVSTINQLLPMLASKPKFFEKSDVGADSNGNRGSCGTAVLNVTLQSVGANSAMLNVTTKVEIGEPQKPSNATIVFKDPRAFIGFVFYHMIDPYGNSTKSSDDPCDDRWKVSSPEKSGVMVLSNLIPYTNYSYYVRTMAISSELTNAESDVKNFRTNPGRPSKVTEVVATAISDSKINVTWSYLDKPYGVLTRYFIKAKLINRPTRNNNRDYCTEPLVKAMENDLPATTPTKKISDPLAGDCKCVEGSKKTSSQEYDDRKVQAGMEFENALQNFIFVPNIRKSKNGSSDKSDGAEGAALDSNAIPNGGATNPSRRRRDVALEPELDDVEGSVLLRHVRSITDDTDAFFEKDDENTYKDEEDLSSNKQFYEVFAKELPPNQTHFVFEKLRHFTRYAIFVVACREEIPSEKLRDTSFKKSLCSDYDTVFQTTKRKKFADIVMDLKVDLEHANNTESPVRVRWTPPVDPNGEIVTYEVAYKLQKPDQVEEKKCIPAADFNQTAGYLIKLNEGLYSFRVRANSIAGYGDFTEVEHIKVEPPPSYA
modifications: N-glycosylation at Asn606 (traces in the cryoEM reconstruction)
notes: a starting methionine was added in front; codon optimised; Asn335 is the first residue seen in the maps; Described as an (alpha-beta)2 homodimer; each protomer comes from one expressed precursor chain (alpha and beta subunits), protomers linked by disulfides; Mass used for ITC 233538 g/mol (the dimer); also called dmIR ectodomain; source: Sf9 cells, baculovirus, secreted into conditioned media, …
  stoichiometry N: 2
